According to patent US20040260058A1 (published 2004):

Experiments:
Experiment in all cases: yeast two-hybrid screen; number of positive colonies with this interactor
Notch 4 = Notch 4 (rat)
Experimental: (§1) A yeast two hybrid screen was carried out in order to identify A proteins which interact with L119. The entire coding region of the L119 cDNA was amplified in a polymerase chain reaction (PCR) and cloned into vector pPC86. The oligonucleotide primers having the sequences SEQ ID NO: 35 and 36 were used to do this. A 50 μl PCR mixture was prepared from 5 μl of 10× cloned Pfu buffer (Stratagene); 2 μl of DNTP mixture (5 mM; Cat. No. 1969064, Roche Diagnostics GmbH, Mannheim, Germany); in each case 2 μl of the abovementioned primer pairs (stock conc. 10 μM); 100 ng of rL119 cDNA template, 35 μl of H₂O and 1 μl of Pfu turbo DNA polymerase (Stratagene), and, after it had been incubated at 94° C. for 3 minutes, 28 PCR cycles were then carried out in accordance with the following temperature programm: 1 min of primer annealing at 56° C., 1 min of strand extension at 72° C. and 1 min of DNA double-strand melting at 94° C., together with a concluding extension step of 7 min at 72° C. The resulting PCR products were gel-purified, cut with the restriction enzymes SalI and NotI and cloned into the corresponding restriction cleavage sites of pPC86. The DNA construct obtained in this way encodes a protein in which the Gal4 DNA-binding domain is fused to the L119 protein. The yeast strain Y190 (Flick JS and Johnston M (1990) Mol. Cell. Biol. 10, 4757-4769; Harper J et al. (1993) Cell 75, 805-816) (from Life Technologies) was transformed with this construct. The resulting yeast strain was transformed with a rat brain cDNA library (obtained from cortex and hippocampus RNA, following maximal electroconvulsive shock (MECS) (Antony Lanahan and Paul Worley)) in the vector pPC86 (from Life Technologies), and 3×10⁶ transformants were plated out. After 3 to 5 days of growth at 30° C., colonies having a diameter of more than 2 mm were isolated and subjected to X-Gal staining (protocol: ProQuest™ Two-Hybrid System, Cat. Series 10835, Life Technologies) . […] The respective cDNA from these colonies was amplified using vector-specific primers and the-amplicon was sequenced (protocol: ProQuest™ Two-Hybrid System, Cat. Series 10835, Life Technologies). The sequence analysis gave 8 different putative interacting proteins (Table 1): […]

Nel = Nel (rat, UniProt Q62918)
Experimental: as §1

Matrilin-2 = Matrilin-2 (rat, UniProt A0A8I6GJR4 24-910)
Experimental: as §1

Laminin alpha-4 chain = Laminin alpha-4 chain (rat)
Experimental: as §1

Nel, sequence (Q62918 whole entry): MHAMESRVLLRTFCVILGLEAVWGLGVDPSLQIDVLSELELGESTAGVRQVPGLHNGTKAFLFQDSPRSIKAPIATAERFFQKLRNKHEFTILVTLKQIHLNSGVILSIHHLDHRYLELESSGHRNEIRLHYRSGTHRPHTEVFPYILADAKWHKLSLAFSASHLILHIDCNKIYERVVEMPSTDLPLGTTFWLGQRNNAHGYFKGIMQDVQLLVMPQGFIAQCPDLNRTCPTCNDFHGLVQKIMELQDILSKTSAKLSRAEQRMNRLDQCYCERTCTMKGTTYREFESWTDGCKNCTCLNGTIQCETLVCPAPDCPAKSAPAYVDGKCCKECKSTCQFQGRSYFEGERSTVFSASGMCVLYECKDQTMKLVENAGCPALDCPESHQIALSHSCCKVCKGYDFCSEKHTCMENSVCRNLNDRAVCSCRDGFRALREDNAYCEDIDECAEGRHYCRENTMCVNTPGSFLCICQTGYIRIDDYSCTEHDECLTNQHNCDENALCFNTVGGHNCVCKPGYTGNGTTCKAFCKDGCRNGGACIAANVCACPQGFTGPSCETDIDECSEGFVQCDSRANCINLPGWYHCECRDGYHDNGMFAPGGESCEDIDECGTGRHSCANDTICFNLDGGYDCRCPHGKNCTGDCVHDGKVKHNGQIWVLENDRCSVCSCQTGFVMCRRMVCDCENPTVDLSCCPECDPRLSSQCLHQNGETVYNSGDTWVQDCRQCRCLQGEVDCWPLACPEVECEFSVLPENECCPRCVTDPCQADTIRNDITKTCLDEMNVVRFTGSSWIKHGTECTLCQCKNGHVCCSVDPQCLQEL
Matrilin-2, sequence (A0A8I6GJR4 entry or part of it): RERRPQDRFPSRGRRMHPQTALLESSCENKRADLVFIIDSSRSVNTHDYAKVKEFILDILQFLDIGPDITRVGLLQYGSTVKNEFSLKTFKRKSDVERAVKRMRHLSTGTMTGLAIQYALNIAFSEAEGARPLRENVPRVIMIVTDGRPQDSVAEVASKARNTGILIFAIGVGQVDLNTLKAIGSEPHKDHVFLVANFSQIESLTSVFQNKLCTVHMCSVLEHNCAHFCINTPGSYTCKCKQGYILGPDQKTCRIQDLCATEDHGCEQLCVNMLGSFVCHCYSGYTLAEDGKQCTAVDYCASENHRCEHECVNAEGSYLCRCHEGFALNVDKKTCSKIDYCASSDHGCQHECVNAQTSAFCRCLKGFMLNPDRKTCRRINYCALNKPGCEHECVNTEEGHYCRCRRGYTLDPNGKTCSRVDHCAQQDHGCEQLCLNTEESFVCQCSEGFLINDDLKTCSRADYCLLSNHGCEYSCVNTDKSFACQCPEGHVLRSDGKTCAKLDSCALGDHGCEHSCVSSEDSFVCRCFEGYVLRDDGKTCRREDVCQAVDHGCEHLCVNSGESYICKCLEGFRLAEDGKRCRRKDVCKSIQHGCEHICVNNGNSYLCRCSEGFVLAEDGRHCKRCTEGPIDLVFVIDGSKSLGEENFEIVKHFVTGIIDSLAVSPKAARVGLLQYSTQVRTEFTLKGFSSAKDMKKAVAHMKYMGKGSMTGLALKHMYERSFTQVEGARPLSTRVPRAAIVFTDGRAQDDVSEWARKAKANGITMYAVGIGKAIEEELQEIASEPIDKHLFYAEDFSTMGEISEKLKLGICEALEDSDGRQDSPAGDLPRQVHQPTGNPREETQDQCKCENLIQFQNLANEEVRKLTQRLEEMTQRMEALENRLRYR

# Frequency (Notch 4): 3 | # Frequency (Nel): 5 | # Frequency (Matrilin-2): 1 | # Frequency (Laminin alpha-4 chain): 1
B1: Gal4 DNA-binding domain fused to the L119 protein (yeast two-hybrid bait) (other)
chain: MKLLSSIEQACDICRLKKLKCSKEKPKCAKCLKNNWECRYSPKTKRSPLTRAHLTEVESRLERLEQLFLLIFPREDLDMILKMDSLQDIKALLTGLFVQDNVNKDAVTDRLASVETDMPLTLRQHRISATSSSEESSNKGQRQLTVSMEKWTAWEPQGADALRRFQGLLLDRRGRLHCQVLRLREVARRLERLRRRSLAANVAGSSLSAAGALAAIVGLSLSPVTLGASLVASAVGLGVATAGGAVTITSDLSLIFCNSREVRRVQEIAATCQDQMRELLSCLEFFCQWQGRGDRQLLQSGRDASMALYNSVYFIVFFGSRGFLIPRRAEGATKVSQAVLKAKIQKLSESLESCTGALDELSEQLESRVQLCTKAGRGHNLRNSPDLDAALFF
notes: also called L119 bait
